Source: US20240400701A1 (LANOVA MEDICINES DEVELOPMENT, published 2024)

T1: human AMHRII (anti-Mullerian hormone receptor type 2) (human, UniProt Q16671 18-573)
T1 construct: whole, on cells; also called AMHR2; human AMHR2
T1 sequence (looked up): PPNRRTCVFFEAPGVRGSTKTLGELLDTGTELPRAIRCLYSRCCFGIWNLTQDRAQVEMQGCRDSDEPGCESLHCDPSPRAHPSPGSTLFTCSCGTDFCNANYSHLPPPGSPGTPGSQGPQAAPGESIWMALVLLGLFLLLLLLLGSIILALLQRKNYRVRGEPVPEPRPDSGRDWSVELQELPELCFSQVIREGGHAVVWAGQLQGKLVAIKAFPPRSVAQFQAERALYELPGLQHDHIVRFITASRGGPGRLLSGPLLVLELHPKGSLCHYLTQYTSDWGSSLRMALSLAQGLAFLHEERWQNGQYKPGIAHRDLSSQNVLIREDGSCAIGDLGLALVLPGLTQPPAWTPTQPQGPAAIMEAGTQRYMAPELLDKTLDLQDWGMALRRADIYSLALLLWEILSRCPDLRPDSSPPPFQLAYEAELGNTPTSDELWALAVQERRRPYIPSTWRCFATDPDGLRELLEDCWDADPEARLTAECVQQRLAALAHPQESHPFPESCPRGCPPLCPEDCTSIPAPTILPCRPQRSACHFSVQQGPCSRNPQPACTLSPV


Target: T1, human AMHRII (anti-Mullerian hormone …)
Assay: FACS on CHO-K1 cells over-expressing human AMHR2
Procedure: CHO-K1 cells over-expressed AMHR2 were harvested from flasks. 100 μl of 1×10⁶ cells/ml of cells were incubated with the humanized antibodies in 3-fold serial dilutions starting from 300 nM to 0.001 nM for 30 minutes on ice. After being washed with 200 μl of FACS buffer twice, cells were incubated with secondary antibody for 30 minutes on ice. Cells were washed with 200 μl of FACS buffer twice and analyzed by FACS.

| Binder | EC50 | Top (MFI) |
| --- | --- | --- |
| 31D9B3 VH1.1-VL2.3 hIgG1 (antibody, V domains shown, Humanized, PTM de-risked, human IgG1; also called 31D9B3 VH1.1-VL2.3 hlgG1) VH: QVQLVQSGAEVKKPGASVKVSCKASGYTFTDYWVSWVRQAPGQGLEWMGEIYPKEGVSNFNEKFKGRVTMTTDTSTSTAYMELRSLRSDDTAVYYCARQRDYWGQGTLVTVSS VL: DVVMTQSPLSLPVTLGQPASISCRSSQSLEYGTGYTYLEWYLQRPGQSPRLLIYGVSNRFSGVPDRFSGSGSGTDFTLKISRVEAEDVGVYYCFQATHDPNTFGQGTKLEIK | 145 nM | 6580 MFI |
| 108F3D1E9 H2L2 hIgG1 (antibody, V domains shown, Humanized, human IgG1; also called 108F3D1E9 H2L2 hlgG1) VH: QLQLQESGPGLVKPSETLSLTCTVSGYSITSDFAWNWIRQPPGKGLEWMGYISFSGSTSYNPSLKSRVTISRDTSKNQFSLKLSSVTAADTAVYYCAGSRYSWFAYWGQGTLVTVSS VL: DIQLTQSPSSLSASVGDRVTITCRASESVDTYGNSFMHWYQQKPGKPPKLLIYRASNLESGIPSRFSGSGSGTDFTLTISSLQPEDFATYYCQQSNEDPYTFGGGTKVEIK | 0.68 nM | 67900 MFI |
| 94C4C3 H2L2 hIgG1 (antibody, V domains shown, Humanized, human IgG1; also called 94C4C3 H2L2 hlgG1) VH: QLQLQESGPGLVKPSETLSLTCTVSGYSITSDYAWNWIRQPPGKGLEWMGYISYSGSISYNPSLKSRITISRDTSKNQFSLKLSSVTAADTAVYYCARSRYSWFDYWGQGTLVTVSS VL: EIVLTQSPGTLSLSPGERATLSCSASESVDTYGNSFMHWYQQKPGQPPRLLIYRASSLESGIPVRFSGSGSRTDFTLTISRLEPEDFAVYYCQQSNEDPYTFGGGTKVEIK | 1.42 nM | 56600 MFI |
| 108F3D1E9 H2L3 hIgG1 (antibody, V domains shown, Humanized, human IgG1; also called 108F3D1E9 H2L3 hlgG1) VH: QLQLQESGPGLVKPSETLSLTCTVSGYSITSDFAWNWIRQPPGKGLEWMGYISFSGSTSYNPSLKSRVTISRDTSKNQFSLKLSSVTAADTAVYYCAGSRYSWFAYWGQGTLVTVSS VL: DIVLTQSPSSLSASVGDRVTITCRASESVDTYGNSFMHWYQQKPGQPPKLLIYRASNLESGIPARFSGSGSGTDFTLTISSVQPEDFATYYCQQSNEDPYTFGGGTKVEIK | 0.74 nM | 67300 MFI |
| 108F3D1E9 H2L1 hIgG1 (antibody, V domains shown, Humanized, human IgG1; also called 108F3D1E9 H2L1 hlgG1) VH: QLQLQESGPGLVKPSETLSLTCTVSGYSITSDFAWNWIRQPPGKGLEWMGYISFSGSTSYNPSLKSRVTISRDTSKNQFSLKLSSVTAADTAVYYCAGSRYSWFAYWGQGTLVTVSS VL: DIQMTQSPSSLSASVGDRVTITCRASESVDTYGNSFMHWYQQKPGKAPKLLIYRASNLESGVPSRFSGSGSGTDFTLTISSLQPEDFATYYCQQSNEDPYTFGGGTKVEIK | 0.55 nM | 64400 MFI |
| 108F3D1E9 H2L4 hIgG1 (antibody, V domains shown, Humanized, human IgG1; also called 108F3D1E9 H2L4 hlgG1) VH: QLQLQESGPGLVKPSETLSLTCTVSGYSITSDFAWNWIRQPPGKGLEWMGYISFSGSTSYNPSLKSRVTISRDTSKNQFSLKLSSVTAADTAVYYCAGSRYSWFAYWGQGTLVTVSS VL: DIVLTQSPSSLSVSVGDRATITCRASESVDTYGNSFMHWYQQKPGQPPKLLIYRASNLESGIPARFSGSGSRTDFTLTISSVQPEDFATYYCQQSNEDPYTFGGGTKLEIK | 0.65 nM | 70600 MFI |
| 94C4C3 H2L1 hIgG1 (antibody, V domains shown, Humanized, human IgG1; also called 94C4C3 H2L1 hlgG1) VH: QLQLQESGPGLVKPSETLSLTCTVSGYSITSDYAWNWIRQPPGKGLEWMGYISYSGSISYNPSLKSRITISRDTSKNQFSLKLSSVTAADTAVYYCARSRYSWFDYWGQGTLVTVSS VL: EIVLTQSPGTLSLSPGERATLSCSASESVDTYGNSFMHWYQQKPGQAPRLLIYRASSLESGIPDRFSGSGSGTDFTLTISRLEPEDFAVYYCQQSNEDPYTFGGGTKVEIK | 1.31 nM | 52800 MFI |
| 108F3D1E9 H1L4 hIgG1 (antibody, V domains shown, Humanized, human IgG1; also called 108F3D1E9 H1L4 hlgG1) VH: QLQLQESGPGLVKPSETLSLTCTVSGYSITSDFAWNWIRQPPGKGLEWIGYISFSGSTSYNPSLKSRVTISVDTSKNQFSLKLSSVTAADTAVYYCARSRYSWFAYWGQGTLVTVSS VL: DIVLTQSPSSLSVSVGDRATITCRASESVDTYGNSFMHWYQQKPGQPPKLLIYRASNLESGIPARFSGSGSRTDFTLTISSVQPEDFATYYCQQSNEDPYTFGGGTKLEIK | 0.88 nM | 70900 MFI |

Results, then the binder that gave them:

| EC50 | Top (MFI) | Binder |
| --- | --- | --- |
| 5.52 nM | 10400 MFI | 31D9B3 VH1-VL2.1 hIgG1 (antibody, V domains shown, Humanized, PTM de-risked (VL D(30C)S), human IgG1; also called 31D9B3 VH1-VL2.1 hlgG1) VH: QVQLVQSGAEVKKPGASVKVSCKASGYTFTDYWVSWVRQAPGQGLEWMGEIYPKNGVSNFNEKFKGRVTMTTDTSTSTAYMELRSLRSDDTAVYYCARQRDYWGQGTLVTVSS VL: DVVMTQSPLSLPVTLGQPASISCRSSQSLEYGSGYTYLEWYLQRPGQSPRLLIYGVSNRFSGVPDRFSGSGSGTDFTLKISRVEAEDVGVYYCFQATHDPNTFGQGTKLEIK |
| 0.875 nM | 16800 MFI | 31D9B3 VH1.1-VL2 hIgG1 (antibody, V domains shown, Humanized, PTM de-risked (VH N54E), human IgG1; also called 31D9B3 VH1.1-VL2 hlgG1) VH: QVQLVQSGAEVKKPGASVKVSCKASGYTFTDYWVSWVRQAPGQGLEWMGEIYPKEGVSNFNEKFKGRVTMTTDTSTSTAYMELRSLRSDDTAVYYCARQRDYWGQGTLVTVSS VL: DVVMTQSPLSLPVTLGQPASISCRSSQSLEYGDGYTYLEWYLQRPGQSPRLLIYGVSNRFSGVPDRFSGSGSGTDFTLKISRVEAEDVGVYYCFQATHDPNTFGQGTKLEIK |
| 0.331 nM | 12500 MFI | 31D9B3 VH1-VL2.3 hIgG1 (antibody, V domains shown, Humanized, PTM de-risked (VL D(30C)T), human IgG1; also called 31D9B3 VH1-VL2.3 hlgG1) VH: QVQLVQSGAEVKKPGASVKVSCKASGYTFTDYWVSWVRQAPGQGLEWMGEIYPKNGVSNFNEKFKGRVTMTTDTSTSTAYMELRSLRSDDTAVYYCARQRDYWGQGTLVTVSS VL: DVVMTQSPLSLPVTLGQPASISCRSSQSLEYGTGYTYLEWYLQRPGQSPRLLIYGVSNRFSGVPDRFSGSGSGTDFTLKISRVEAEDVGVYYCFQATHDPNTFGQGTKLEIK |
| 0.625 nM | 14500 MFI | 31D9B3 VH1.1-VL2.2 hIgG1 (antibody, V domains shown, Humanized, PTM de-risked, human IgG1; also called 31D9B3 VH1.1-VL2.2 hlgG1) VH: QVQLVQSGAEVKKPGASVKVSCKASGYTFTDYWVSWVRQAPGQGLEWMGEIYPKEGVSNFNEKFKGRVTMTTDTSTSTAYMELRSLRSDDTAVYYCARQRDYWGQGTLVTVSS VL: DVVMTQSPLSLPVTLGQPASISCRSSQSLEYGDRYTYLEWYLQRPGQSPRLLIYGVSNRFSGVPDRFSGSGSGTDFTLKISRVEAEDVGVYYCFQATHDPNTFGQGTKLEIK |
| 89.7 nM | 2170 MFI | 31D9B3 VH1.1-VL2.1 hIgG1 (antibody, V domains shown, Humanized, PTM de-risked, human IgG1; also called 31D9B3 VH1.1-VL2.1 hlgG1) VH: QVQLVQSGAEVKKPGASVKVSCKASGYTFTDYWVSWVRQAPGQGLEWMGEIYPKEGVSNFNEKFKGRVTMTTDTSTSTAYMELRSLRSDDTAVYYCARQRDYWGQGTLVTVSS VL: DVVMTQSPLSLPVTLGQPASISCRSSQSLEYGSGYTYLEWYLQRPGQSPRLLIYGVSNRFSGVPDRFSGSGSGTDFTLKISRVEAEDVGVYYCFQATHDPNTFGQGTKLEIK |
| 1.46 nM | 49600 MFI | 94C4C3 H1L2 hIgG1 (antibody, V domains shown, Humanized, human IgG1; also called 94C4C3 H1L2 hlgG1) VH: QLQLQESGPGLVKPSETLSLTCTVSGYSITSDYAWNWIRQPPGKGLEWIGYISYSGSISYNPSLKSRVTISVDTSKNQFSLKLSSVTAADTAVYYCARSRYSWFDYWGQGTLVTVSS VL: EIVLTQSPGTLSLSPGERATLSCSASESVDTYGNSFMHWYQQKPGQPPRLLIYRASSLESGIPVRFSGSGSRTDFTLTISRLEPEDFAVYYCQQSNEDPYTFGGGTKVEIK |
| 0.82 nM | 66700 MFI | 108F3D1E9 H1L3 hIgG1 (antibody, V domains shown, Humanized, human IgG1; also called 108F3D1E9 H1L3 hlgG1) VH: QLQLQESGPGLVKPSETLSLTCTVSGYSITSDFAWNWIRQPPGKGLEWIGYISFSGSTSYNPSLKSRVTISVDTSKNQFSLKLSSVTAADTAVYYCARSRYSWFAYWGQGTLVTVSS VL: DIVLTQSPSSLSASVGDRVTITCRASESVDTYGNSFMHWYQQKPGQPPKLLIYRASNLESGIPARFSGSGSGTDFTLTISSVQPEDFATYYCQQSNEDPYTFGGGTKVEIK |
| 1.21 nM | 47200 MFI | 94C4C3 H1L4 hIgG1 (antibody, V domains shown, Humanized, human IgG1; also called 94C4C3 H1L4 hlgG1) VH: QLQLQESGPGLVKPSETLSLTCTVSGYSITSDYAWNWIRQPPGKGLEWIGYISYSGSISYNPSLKSRVTISVDTSKNQFSLKLSSVTAADTAVYYCARSRYSWFDYWGQGTLVTVSS VL: DIVLTQSPGTLSVSPGERATLSCSASESVDTYGNSFMHWYQQKPGQPPKLLIYRASSLESGIPVRFSGSGSRTDFTLTISRVEAEDFAVYYCQQSNEDPYTFGGGTKLEIK |
| 0.82 nM | 64600 MFI | 108F3D1E9 H1L2 hIgG1 (antibody, V domains shown, Humanized, human IgG1; also called 108F3D1E9 H1L2 hlgG1) VH: QLQLQESGPGLVKPSETLSLTCTVSGYSITSDFAWNWIRQPPGKGLEWIGYISFSGSTSYNPSLKSRVTISVDTSKNQFSLKLSSVTAADTAVYYCARSRYSWFAYWGQGTLVTVSS VL: DIQLTQSPSSLSASVGDRVTITCRASESVDTYGNSFMHWYQQKPGKPPKLLIYRASNLESGIPSRFSGSGSGTDFTLTISSLQPEDFATYYCQQSNEDPYTFGGGTKVEIK |
| 1.45 nM | 50200 MFI | 94C4C3 H1L3 hIgG1 (antibody, V domains shown, Humanized, human IgG1; also called 94C4C3 H1L3 hlgG1) VH: QLQLQESGPGLVKPSETLSLTCTVSGYSITSDYAWNWIRQPPGKGLEWIGYISYSGSISYNPSLKSRVTISVDTSKNQFSLKLSSVTAADTAVYYCARSRYSWFDYWGQGTLVTVSS VL: EIVLTQSPGTLSLSPGERATLSCSASESVDTYGNSFMHWYQQKPGQPPRLLIYRASSLESGIPVRFSGSGSRTDFTLTISRVEAEDFAVYYCQQSNEDPYTFGGGTKLEIK |
